The values that follow come from the supplement of paper PMC5998384.

Data set [1] concerns HeLa Kyoto. Nature of the data set: thermal stability score vs G1/S (z-score of summed log2 fold changes over temperatures); higher = more thermally stable than in G1/S.
The subject of data set [2] is HeLa Kyoto. Nature of the data set: melting temperature (median over replicates), in situ; higher = more thermally stable.
The test system of data set [3] is HeLa Kyoto. The experiment in a line: solubility change mitosis vs G1/S (difference of NP-40 vs SDS log2 ratios) (log2 ratio difference); higher = more soluble in mitosis.
In data set [4] the test system is HeLa Kyoto. Nature of the data set: solubility in G1/S (NP-40 vs SDS abundance) (log2 ratio); higher = more soluble. To be noted: cell cycle stage: G1/S.
The mark [5] stands for this setting: cell cycle stage: early G1 (4.5 h after nocodazole release).
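Throughout, for melting temperature (median over replicates), in situ: HeLa Kyoto cells synchronized by double thymidine or nocodazole block, proteins quantified by TMT10plex mass spectrometry, three independent biological replicates.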
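Throughout, for solubility change mitosis vs G1/S (difference of NP-40 vs SDS log2 ratios): synchronized HeLa Kyoto cells (double thymidine block for G1/S, nocodazole release for mitosis), protein amounts in NP-40 versus SDS lysates quantified by mass spectrometry, three biological replicates.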
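Throughout, for solubility in G1/S (NP-40 vs SDS abundance): HeLa Kyoto cells arrested at G1/S by double thymidine block, proteins quantified by TMT10plex mass spectrometry in mild NP-40 versus SDS extracts, three biological replicates.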
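Throughout, for thermal stability score vs G1/S (z-score of summed log2 fold changes over temperatures): synchronized HeLa Kyoto cells, proteins quantified by TMT10plex mass spectrometry, three biological replicates, mitosis taken 0.5 h after nocodazole release, G1/S directly after double thymidine block.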

PTBP1, sequence (chain, as listed by the source): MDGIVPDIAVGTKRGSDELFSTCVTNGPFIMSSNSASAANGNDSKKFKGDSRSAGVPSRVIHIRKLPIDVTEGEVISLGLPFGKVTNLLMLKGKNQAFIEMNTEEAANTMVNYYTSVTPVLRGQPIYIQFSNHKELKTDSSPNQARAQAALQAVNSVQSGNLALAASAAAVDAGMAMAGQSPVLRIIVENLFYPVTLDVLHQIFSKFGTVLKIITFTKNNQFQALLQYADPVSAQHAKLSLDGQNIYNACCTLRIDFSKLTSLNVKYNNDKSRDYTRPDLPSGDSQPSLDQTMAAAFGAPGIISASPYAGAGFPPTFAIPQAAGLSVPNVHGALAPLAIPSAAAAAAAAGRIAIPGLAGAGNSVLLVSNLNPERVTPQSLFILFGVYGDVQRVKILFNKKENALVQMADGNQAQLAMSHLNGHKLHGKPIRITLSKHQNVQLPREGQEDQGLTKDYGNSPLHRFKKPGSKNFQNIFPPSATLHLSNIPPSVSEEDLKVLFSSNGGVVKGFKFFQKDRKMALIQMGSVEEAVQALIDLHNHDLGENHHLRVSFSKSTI

In the case of “MARGERRRRAVPAEGVRTAERAARGGPGRRDGRGGGPRSTAGGVALAVVVLSLALGMSGRWVLAWYRARRAVTLHSAPPVLPADSSSPAVAPDLFWGTYRPHVYFGMKTRSPKPLLTGLMWAQQGTTPGTPKLRHTCEQGDGVGPYGWEFHDGLSFGRQHIQDGALRLTTEFVKRPGGQHGGDWSWRVTVEPQDSGTSALPLVSLFFYVVTDGKEVLLPEVGAKGQLKFISGHTSELGDFRFTLLPPTSPGDTAPKYGSYNVFWTSNPGLPLLTEMVKSRLNSWFQHRPPGAPPERYLGLPGSLKWEDRGPSGQGQGQFLIQQVTLKIPISIEFVFESGSAQAGGNQALPRLAGSLLTQALESHAEGFRERFEKTFQLKEKGLSSGEQVLGQAALSGLLGGIGYFYGQGLVLPDIGVEGSEQKVDPALFPPVPLFTAVPSRSFFPRGFLWDEGFHQLVVQRWDPSLTREALGHWLGLLNADGWIGREQILGDEARARVPPEFLVQRAVHANPPTLLLPVAHMLEVGDPDDLAFLRKALPRLHAWFSWLHQSQAGPLPLSYRWRGRDPALPTLLNPKTLPSGLDDYPRASHPSVTERHLDLRCWVALGARVLTRLAEHLGEAEVAAELGPLAASLEAAESLDELHWAPELGVFADFGNHTKAVQLKPRPPQGLVRVVGRPQPQLQYVDALGYVSLFPLLLRLLDPTSSRLGPLLDILADSRHLWSPFGLRSLAASSSFYGQRNSEHDPPYWRGAVWLNVNYLALGALHHYGHLEGPHQARAAKLHGELRANVVGNVWRQYQATGFLWEQYSDRDGRGMGCRPFHGWTSLVLLAMAEDY [MOGS]”, the thermal stability score in the data set with HeLa Kyoto [1] (setting [5]) was determined as 3.25; in the data set on HeLa Kyoto [1] (cell cycle stage: mitosis), 3.97. Besides, the melting temperature in the data set on HeLa Kyoto [2] (cell cycle stage: G1/S) worked out at 52.9 °C; in the data set on HeLa Kyoto [2] (cell cycle stage: mitosis), 52.8 °C. In the data set on HeLa Kyoto [3], the “solubility change mitosis (log2)” value was -0.0215. Also, the “solubility in G1/S (log2)” value in the data set on HeLa Kyoto [4] was -0.0875.
For “MASGRDERPPWRLGRLLLLMCLLLLGSSARAAHIKKAEATTTTTSAGAEAAEGQFDRYYHEEELESALREAAAAGLPGLARLFSIGRSVEGRPLWVLRLTAGLGSLIPEGDAGPDAAGPDAAGPLLPGRPQVKLVGNMHGDETVSRQVLIYLARELAAGYRRGDPRLVRLLNTTDVYLLPSLNPDGFERAREGDCGFGDGGPSGASGRDNSRGRDLNRSFPDQFSTGEPPALDEVPEVRALIEWIRRNKFVLSGNLHGGSVVASYPFDDSPEHKATGIYSKTSDDEVFKYLAKAYASNHPIMKTGEPHCPGDEDETFKDGITNGAHWYDVEGGMQDYNYVWANCFEITLELSCCKYPPASQLRQEWENNRESLITLIEKVHIGVKGFVKDSITGSGLENATISVAGINHNITTGRFGDFYRLLVPGTYNLTVVLTGYMPLTVTNVVVKEGPATEVDFSLRPTVTSVIPDTTEAVSTASTVAIPNILSGTSSSYQPIQPKDFHHHHFPDMEIFLRRFANEYPNITRLYSLGKSVESRELYVMEISDNPGVHEPGEPEFKYIGNMHGNEVVGRELLLNLIEYLCKNFGTDPEVTDLVHNTRIHLMPSMNPDGYEKSQEGDSISVIGRNNSNNFDLNRNFPDQFVQITDPTQPETIAVMSWMKSYPFVLSANLHGGSLVVNYPFDDDEQGLATYSKSPDDAVFQQIALSYSKENSQMFQGRPCKNMYPNEYFPHGITNGASWYNVPGGMQDWNYLQTNCFEVTIELGCVKYPLEKELPNFWEQNRRSLIQFMKQVHQGVRGFVLDATDGRGILNATISVAEINHPVTTYKTGDYWRLLVPGTYKITASARGYNPVTKNVTVKSEGAIQVNFTLVRSSTDSNNESKKGKGASSSTNDASDPTTKEFETLIKDLSAENGLESLMLRSSSNLALALYRYHSYKDLSEFLRGLVMNYPHITNLTNLGQSTEYRHIWSLEISNKPNVSEPEEPKIRFVAGIHGNAPVGTELLLALAEFLCLNYKKNPAVTQLVDRTRIVIVPSLNPDGRERAQEKDCTSKIGQTNARGKDLDTDFTNNASQPETKAIIENLIQKQDFSLSVALDGGSMLVTYPYDKPVQTVENKETLKHLASLYANNHPSMHMGQPSCPNKSDENIPGGVMRGAEWHSHLGSMKDYSVTYGHCPEITVYTSCCYFPSAARLPSLWADNKRSLLSMLVEVHKGVHGFVKDKTGKPISKAVIVLNEGIKVQTKEGGYFHVLLAPGVHNIIAIADGYQQQHSQVFVHHDAASSVVIVFDTDNRIFGLPRELVVTVSGATMSALILTACIIWCICSIKSNRHKDGFHRLRQHHDEYEDEIRMMSTGSKKSLLSHEFQDETDTEEETLYSSKH [CPD]”, the thermal stability score is -2.91 with HeLa Kyoto [1] (setting [5]) and -3.88 in the data set with HeLa Kyoto [1] (cell cycle stage: mitosis). The melting temperature in the data set on HeLa Kyoto [2] (cell cycle stage: G1/S) is 55.5 °C; with HeLa Kyoto [2] (cell cycle stage: mitosis), 53.8 °C. The “solubility change mitosis (log2)” value in the data set on HeLa Kyoto [3] was -0.0862. Besides, the “solubility in G1/S (log2)” value in the data set with HeLa Kyoto [4] is 0.211.
For “MLRWLRDFVLPTAACQDAEQPTRYETLFQALDRNGDGVVDIGELQEGLRNLGIPLGQDAEEKIFTTGDVNKDGKLDFEEFMKYLKDHEKKMKLAFKSLDKNNDGKIEASEIVQSLQTLGLTISEQQAELILQSIDVDGTMTVDWNEWRDYFLFNPVTDIEEIIRFWKHSTGIDIGDSLTIPDEFTEDEKKSGQWWRQLLAGGIAGAVSRTSTAPLDRLKIMMQVHGSKSDKMNIFGGFRQMVKEGGIRSLWRGNGTNVIKIAPETAVKFWAYEQYKKLLTEEGQKIGTFERFISGSMAGATAQTFIYPMEVMKTRLAVGKTGQYSGIYDCAKKILKHEGLGAFYKGYVPNLLGIIPYAGIDLAVYELLKSYWLDNFAKDSVNPGVMVLLGCGALSSTCGQLASYPLALVRTRMQAQAMLEGSPQLNMVGLFRRIISKEGIPGLYRGITPNFMKVLPAVGISYVVYENMKQTLGVTQK [SLC25A24]”, the thermal stability score with HeLa Kyoto [1] (setting [5]) is -1.13; with HeLa Kyoto [1] (cell cycle stage: mitosis) it was -0.922. Moreover, the melting temperature with HeLa Kyoto [2] (cell cycle stage: G1/S) worked out at 56.8 °C; in the data set on HeLa Kyoto [2] (cell cycle stage: mitosis), 57.8 °C. Moreover, in the data set with HeLa Kyoto [3], the “solubility change mitosis (log2)” value was -0.0619. Also, the “solubility in G1/S (log2)” value in the data set with HeLa Kyoto [4] is 0.296.
With “MAAVVAATRWWQLLLVLSAAGMGASGAPQPPNILLLLMDDMGWGDLGVYGEPSRETPNLDRMAAEGLLFPNFYSANPLCSPSRAALLTGRLPIRNGFYTTNAHARNAYTPQEIVGGIPDSEQLLPELLKKAGYVSKIVGKWHLGHRPQFHPLKHGFDEWFGSPNCHFGPYDNKARPNIPVYRDWEMVGRYYEEFPINLKTGEANLTQIYLQEALDFIKRQARHHPFFLYWAVDATHAPVYASKPFLGTSQRGRYGDAVREIDDSIGKILELLQDLHVADNTFVFFTSDNGAALISAPEQGGSNGPFLCGKQTTFEGGMREPALAWWPGHVTAGQVSHQLGSIMDLFTTSLALAGLTPPSDRAIDGLNLLPTLLQGRLMDRPIFYYRGDTLMAATLGQHKAHFWTWTNSWENFRQGIDFCPGQNVSGVTTHNLEDHTKLPLIFHLGRDPGERFPLSFASAEYQEALSRITSVVQQHQEALVPAQPQLNVCNWAVMNWAPPGCEKLGKCLTPPESIPKKCLWSH [GALNS]”, the thermal stability score in the data set on HeLa Kyoto [1] (setting [5]) was -4.28; with HeLa Kyoto [1] (cell cycle stage: mitosis) it was -1.14. Moreover, the melting temperature was 55.5 °C in the data set with HeLa Kyoto [2] (cell cycle stage: G1/S) and 57.8 °C in the data set on HeLa Kyoto [2] (cell cycle stage: mitosis). Besides, in the data set with HeLa Kyoto [3], the “solubility change mitosis (log2)” value was -0.0581. In addition, the “solubility in G1/S (log2)” value with HeLa Kyoto [4] was determined as 0.789.
In the case of DIP2A, the thermal stability score in the data set on HeLa Kyoto [1] (setting [5]) stood at 0.00154; in the data set with HeLa Kyoto [1] (cell cycle stage: mitosis), 0.398. The melting temperature with HeLa Kyoto [2] (cell cycle stage: G1/S) is 51.3 °C. Further, the “solubility change mitosis (log2)” value in the data set with HeLa Kyoto [3] was -0.0755. Besides, the “solubility in G1/S (log2)” value with HeLa Kyoto [4] is -0.104.
PTBP1: the thermal stability score with HeLa Kyoto [1] (setting [5]) is 5.29; in the data set on HeLa Kyoto [1] (cell cycle stage: mitosis), 9.17. Moreover, the results for the melting temperature with HeLa Kyoto [2] (cell cycle stage: G1/S) and with HeLa Kyoto [2] (cell cycle stage: mitosis) were 49.1 °C and 48.6 °C, respectively. For the same substance, the “solubility change mitosis (log2)” value in the data set on HeLa Kyoto [3] was 0.0339. Also, the “solubility in G1/S (log2)” value in the data set on HeLa Kyoto [4] came to 0.378.
For the substance GLUD1, the thermal stability score in the data set with HeLa Kyoto [1] (setting [5]) was 2.33; in the data set on HeLa Kyoto [1] (cell cycle stage: mitosis) it was -0.967. The figures for the melting temperature with HeLa Kyoto [2] (cell cycle stage: G1/S) and with HeLa Kyoto [2] (cell cycle stage: mitosis) were 57.5 °C and 57.2 °C, respectively. Besides, the “solubility change mitosis (log2)” value in the data set on HeLa Kyoto [3] is -0.0663. Moreover, the “solubility in G1/S (log2)” value in the data set with HeLa Kyoto [4] stood at 0.197.
